In patent US20250387497A1, “MULTIVALENT MULTISPECIFIC CONJUGATES AND RELATED COMPOSITIONS AND METHODS OF USE” (Purdue Research Foundation, priority 2022, published 2025):

Experiments:
[1] = test system: MB49 cells; assay: Binding and internalization of P1/P2 peptides, anti-HA immunofluorescence, MB49 cells; format: cell-based; settings: mouse MB49 cells (LE and WT)
Method: (§1) Arrows and arrowheads point to examples of internalized peptide in endosomal and late compartments, respectively.
After five minutes, internalized peptide was localized to peripheral early endosomes (arrowheads) and after 45 minutes accumulated in late endosomes/lysosomes (arrows).
FIGS. 3F-3G show the amount of cell-associated peptide as a function of time as estimated by quantitative microscopy (FIG. 3F) and as a function of dose by quantitative Western blot (FIG. 3G) with anti-HA antibodies (upper panel) followed by band densitometry of triplicates (lower panel).
(§2) The tested conjugates targeted bladder cancer cells and were internalized. See Coon et al. (2012), supra, for description of methodologies. See, e.g., FIGS. 3D and 3E. Given interspecies receptor conservation, the conjugates targeted cells of human, mouse and canine origin (FIG. 3D), and were internalized in GFP-Rab5-positive endosomes (see, e.g., FIG. 3D, mid-panel set) in a time-dependent manner (FIG. 3E).

[2] = test system: T24 cells; assay: Binding and internalization of P1/P2 peptides, anti-HA immunofluorescence, T24 cells; format: cell-based; settings: human T24 cells
Excerpt: as §1, §2

[3] = test system: cells isolated from spontaneous dog tumors and immortalized; assay: Binding and internalization of P1/P2 peptides, anti-HA immunofluorescence, canine bladder tumor cells; format: cell-based
Excerpt: as §1, §2

[4] = test system: normal urothelium; assay: P2 binding/uptake in cultured normal urothelium cells, anti-HA immunostaining; format: cell-based; settings: different P2 concentrations
Method: (§3) FIGS. 4A and 4B show images of immunostaining with an anti-HA antibody of normal (FIG. 4A) and MB49 wild type cancer (FIG. 4B) cells incubated with the highest concentration of P2 conjugates used.
(§4) Normal (labeled A) and MB49 wild type cancer (labeled B) cells isolated from bladder urothelium were disaggregated and cultured in vitro. Cultured cells were incubated with different concentrations of the P2 MV-MS conjugate and the presence of cell-bound peptide was investigated by immunostaining with an anti-HA antibody using the methodologies described in Example 1.

[5] = test system: MB49 wild type cancer cells; assay: P2 binding in cultured MB49 wild type cancer cells, anti-HA immunostaining; format: cell-based, mouse; settings: MB49 wild type cancer cells versus normal urothelium cells
Method: as §3, §4

Row | Molecule | binding and internalization of peptide [1] | binding and internalization of peptide [2] | binding and internalization of peptide [3] | binding or uptake to normal urothelium [4] | selectivity for cancer cells [5]
1 | YHWYGYTPQNVIGRAQGKAQGKLAKLAKKLAKLAKGQAKGQARGFCGDGFYACY MDVGKQAGRQAGVSPPLTLGQLLSGQRAGQKAG (HA tag; MV-MS conjugate; P1 conjugate sequence: E-I-H-F) YHWYGYTPQNVIGRAQGKAQGKLAKLAKKLAKLAKGQAKGQARGFCGDGFYACYMDVGKQAGRQAGVSPPLTLGQLLSGQRAGQKAG | bound and internalized | bound and internalized | bound and internalized | – | –
2 | FCGDGFYACYMDVGRAQGKAQGYHWYGYTPQNVIGQAKGQARGVSPPLTLGQLLSG KQAGRQAGKLAKLAKKLAKLAKGQRAGQKAG (HA tag; MV-MS conjugate; P2 conjugate sequence: H-E-F-I) FCGDGFYACYMDVGRAQGKAQGYHWYGYTPQNVIGQAKGQARGVSPPLTLGQLLSGKQAGRQAGKLAKLAKKLAKLAKGQRAGQKAG | bound and internalized | bound and internalized | bound and internalized | no detectable binding or uptake | marked selectivity for cancer cells
